Data: publication PMC9352680, “A comprehensive thermodynamic model for RNA binding by the Saccharomyces cerevisiae Pumilio protein PUF4”

T1: PUF4 RNA-binding domain (Saccharomyces cerevisiae, UniProt P25339 537-888)
T1 sequence: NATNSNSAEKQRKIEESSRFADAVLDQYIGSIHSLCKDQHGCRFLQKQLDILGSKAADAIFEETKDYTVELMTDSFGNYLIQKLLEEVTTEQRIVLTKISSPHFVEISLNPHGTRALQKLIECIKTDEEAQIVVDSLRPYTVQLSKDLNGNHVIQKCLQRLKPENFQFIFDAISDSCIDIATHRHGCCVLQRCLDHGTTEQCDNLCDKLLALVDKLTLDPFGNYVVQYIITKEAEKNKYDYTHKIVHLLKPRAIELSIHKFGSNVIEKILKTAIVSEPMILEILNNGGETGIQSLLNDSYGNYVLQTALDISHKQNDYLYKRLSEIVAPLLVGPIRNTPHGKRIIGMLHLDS

B1: Ic_S2_P3E.1_K3.1_C3.1_H3.1_A3.1_F3.1_[A8T]_T3.1 (ssRNA)
RNA: UUUGAUUAAUAUGAUAUCGUUCUUUCUUGUAUAUUUUCUUUCUCGAUAUCAUAUUAAUCUUU

Biological target: T1, PUF4 RNA-binding domain
Test: Mg; RNA-MaP; 20 mM Na-HEPES pH 7.4, 30 mM KOAc, 0.75 mM MgCl2, 0.1% Tween-20, 5% glycerol, 0.1 mg/mL BSA, 2 mM DTT; 25 C; 0.0125-409.6 nM protein
Conditions: tags: N-His6-TEV cleaved; C-SNAP kept, Cy3B-labelled; label: tethered on chip by stalled RNA polymerase

Binder | Kd [nM]
UCUCUUCUUGUUUCCUAUAUAUAUCUCUU (ssRNA) [Ie_S1_P3E.2_K3.1_C3.2_H3.1_[+3TTCCT]_A3.1_F3.1_T3.2] | 106
UCUCUUCUUGUACCCUAUAUAUCUCUU (ssRNA) [Ie_S1_P3E.2_K3.1_C3.2_H3.1_[+4CCC]_A3.1_F3.1_T3.2] | 8.38
UCUCUUCUUGUAUAUUCAUAUCUCUU (ssRNA) [Ie_S1_P3E.2_K3.1_C3.2_H3.1_A3.1_F3.1_[+7TC]_T3.2] | 10.3
UCUCUUCUUGUAUAUACCUUAUCUCUU (ssRNA) [Ie_S1_P3E.2_K3.1_C3.2_H3.1_A3.1_F3.1_[+8CCT]_T3.2] | 8.91
UCUCUUCUUGCCCUUAUAUAUAUCUCUU (ssRNA) [Ie_S1_P3E.2_K3.1_C3.2_H3.1_[+2CCCT]_A3.1_F3.1_T3.2] | 1190
UCUCUUCUUGUACUUAUAUAUCUCUU (ssRNA) [Ie_S1_P3E.2_K3.1_C3.2_H3.1_[+4CT]_A3.1_F3.1_T3.2] | 6.52
UCUCUUCUUGUACCUCUAUAUAUCUCUU (ssRNA) [Ie_S1_P3E.2_K3.1_C3.2_H3.1_[+4CCTC]_A3.1_F3.1_T3.2] | 12.4
UCUCUUCUUGCUCUCUAUAUAUAUCUCUU (ssRNA) [Ie_S1_P3E.2_K3.1_C3.2_H3.1_[+2CTCTC]_A3.1_F3.1_T3.2] | 1140
UCUCUUCUUGUCAUAUAUAUCUCUU (ssRNA) [Ie_S1_P3E.2_K3.1_C3.2_H3.1_[+3C]_A3.1_F3.1_T3.2] | 67
UCUCUUCUUGUACCUAUAUAUCUCUU (ssRNA) [Ie_S1_P3E.2_K3.1_C3.2_H3.1_[+4CC]_A3.1_F3.1_T3.2] | 17.6
UCUCUUCUUGUACCCUUUAUAUAUCUCUU (ssRNA) [Ie_S1_P3E.2_K3.1_C3.2_H3.1_[+4CCCTT]_A3.1_F3.1_T3.2] | 20.6
UCUCUUUGUAUGCUUAUCUCUU (ssRNA) [Ic_S1_P5E.1_K5.1_C5.1_H5.1_A5.1_[T6G]_[A7C]_F5.1_T5.1] | 32
UCUCUUUGUAUCUUUAUCUCUU (ssRNA) [Ib_S1_P5E.1_K5.1_C5.1_H5.1_A5.1_[T6C]_[A7T]_F5.1_T5.1] | 6.01
UCUCUUCUUGUAUACUAUAUCUCUU (ssRNA) [Ie_S1_P3E.2_K3.1_C3.2_H3.1_A3.1_[+6C]_F3.1_T3.2] | 0.878
UCUCUUUGUAUCGUUAUCUCUU (ssRNA) [Ib_S1_P5E.1_K5.1_C5.1_H5.1_A5.1_[T6C]_[A7G]_F5.1_T5.1] | 14.4
UCUCUUCUUGUCCCUAUAUAUAUCUCUU (ssRNA) [Ie_S1_P3E.2_K3.1_C3.2_H3.1_[+3CCCT]_A3.1_F3.1_T3.2] | 454
UCUCUUCUUGUCCCAUAUAUAUCUCUU (ssRNA) [Ie_S1_P3E.2_K3.1_C3.2_H3.1_[+3CCC]_A3.1_F3.1_T3.2] | 64.7
UCUCUUCUUGUAUAUCUCUCAUAUCUCUU (ssRNA) [Ie_S1_P3E.2_K3.1_C3.2_H3.1_A3.1_F3.1_[+7CTCTC]_T3.2] | 28.5
UCUCUUCUUGUAUAUAUUAUCUCUU (ssRNA) [Ie_S1_P3E.2_K3.1_C3.2_H3.1_A3.1_F3.1_[+8T]_T3.2] | 5.64
UCUCUUCUUGUCCUCAUAUAUAUCUCUU (ssRNA) [Ie_S1_P3E.2_K3.1_C3.2_H3.1_[+3CCTC]_A3.1_F3.1_T3.2] | 798
UCUCUUCUUGUUCUCUAUAUAUAUCUCUU (ssRNA) [Ie_S1_P3E.2_K3.1_C3.2_H3.1_[+3TCTCT]_A3.1_F3.1_T3.2] | 68.4
UCUCUUCUUGUAUCCAUAUAUCUCUU (ssRNA) [Ie_S1_P3E.2_K3.1_C3.2_H3.1_A3.1_[+5CC]_F3.1_T3.2] | 29.9
UCUCUUCUUGUAUAUACUAUCUCUU (ssRNA) [Ie_S1_P3E.2_K3.1_C3.2_H3.1_A3.1_F3.1_[+8C]_T3.2] | 8.83
UCUCUUCUUGUAUAUAUCUAUCUCUU (ssRNA) [Ie_S1_P3E.2_K3.1_C3.2_H3.1_A3.1_F3.1_[+8TC]_T3.2] | 9.28

Binder | Kd [nM]
UCUCUUCUUGUUUCCAUAUAUAUCUCUU (ssRNA) [Ie_S1_P3E.2_K3.1_C3.2_H3.1_[+3TTCC]_A3.1_F3.1_T3.2] | 69.3
UCUCUUCUUGUAUAUCUCAUAUCUCUU (ssRNA) [Ie_S1_P3E.2_K3.1_C3.2_H3.1_A3.1_F3.1_[+7CTC]_T3.2] | 24.7
UCUCUUCUUGUACUAUAUAUCUCUU (ssRNA) [Ie_S1_P3E.2_K3.1_C3.2_H3.1_[+4C]_A3.1_F3.1_T3.2] | 1.5
UCUCUUCUUGUAUUAUAUAUCUCUU (ssRNA) [Ie_S1_P3E.2_K3.1_C3.2_H3.1_A3.1_[+5T]_F3.1_T3.2] | 2.15
UCUCUUCUUGUACUCUAUAUAUCUCUU (ssRNA) [Ie_S1_P3E.2_K3.1_C3.2_H3.1_[+4CTC]_A3.1_F3.1_T3.2] | 3.95
B1 | 1.67
UCUCUUCUUGUACUCUUAUAUAUCUCUU (ssRNA) [Ie_S1_P3E.2_K3.1_C3.2_H3.1_[+4CTCT]_A3.1_F3.1_T3.2] | 9.53
UCUCUUCUUGUCCUCUAUAUAUAUCUCUU (ssRNA) [Ie_S1_P3E.2_K3.1_C3.2_H3.1_[+3CCTCT]_A3.1_F3.1_T3.2] | 139
UCUCUUCUUGUAUAUCCCAUAUCUCUU (ssRNA) [Ie_S1_P3E.2_K3.1_C3.2_H3.1_A3.1_F3.1_[+7CCC]_T3.2] | 37.9
UCUCUUCUUGUUCCUAUAUAUAUCUCUU (ssRNA) [Ie_S1_P3E.2_K3.1_C3.2_H3.1_[+2TTCC]_A3.1_F3.1_T3.2] | 104
UCUCUUCUUGUUCCAUAUAUAUCUCUU (ssRNA) [Ie_S1_P3E.2_K3.1_C3.2_H3.1_[+3TCC]_A3.1_F3.1_T3.2] | 26.1
UCUCUUCUUGUACUCUCUAUAUAUCUCUU (ssRNA) [Ie_S1_P3E.2_K3.1_C3.2_H3.1_[+4CTCTC]_A3.1_F3.1_T3.2] | 31
UCUCUUCUUGUAUAUAUUCUAUCUCUU (ssRNA) [Ie_S1_P3E.2_K3.1_C3.2_H3.1_A3.1_F3.1_[+8TTC]_T3.2] | 4.4
UCUCUUCUUGCCUCUUAUAUAUAUCUCUU (ssRNA) [Ie_S1_P3E.2_K3.1_C3.2_H3.1_[+2CCTCT]_A3.1_F3.1_T3.2] | 1680
UCUCUUCUUGUUCAUAUAUAUCUCUU (ssRNA) [Ie_S1_P3E.2_K3.1_C3.2_H3.1_[+3TC]_A3.1_F3.1_T3.2] | 98.7
UCUCUUCUUGUAUAUAUCCUAUCUCUU (ssRNA) [Ie_S1_P3E.2_K3.1_C3.2_H3.1_A3.1_F3.1_[+8TCC]_T3.2] | 10.2
UCUCUUCUUGUAUAUACUCUAUCUCUU (ssRNA) [Ie_S1_P3E.2_K3.1_C3.2_H3.1_A3.1_F3.1_[+8CTC]_T3.2] | 11.7
UCUCUUUGUAUCCUUAUCUCUU (ssRNA) [Ib_S1_P5E.1_K5.1_C5.1_H5.1_A5.1_[T6C]_[A7C]_F5.1_T5.1] | 9.16
UCUCUUCUUGUAUAUACUUAUCUCUU (ssRNA) [Ie_S1_P3E.2_K3.1_C3.2_H3.1_A3.1_F3.1_[+8CT]_T3.2] | 9.04
UCUCUUCUUGUAUCAUAUAUCUCUU (ssRNA) [Ie_S1_P3E.2_K3.1_C3.2_H3.1_A3.1_[+5C]_F3.1_T3.2] | 1.6
UCUCUUCUUGUCCAUAUAUAUCUCUU (ssRNA) [Ie_S1_P3E.2_K3.1_C3.2_H3.1_[+3CC]_A3.1_F3.1_T3.2] | 822
UCUCUUCUUGUAUAUUUCAUAUCUCUU (ssRNA) [Ie_S1_P3E.2_K3.1_C3.2_H3.1_A3.1_F3.1_[+7TTC]_T3.2] | 6.46
UCUCUUCUUGUAUAUUCCAUAUCUCUU (ssRNA) [Ie_S1_P3E.2_K3.1_C3.2_H3.1_A3.1_F3.1_[+7TCC]_T3.2] | 9.71
